From IntAct's records for PubMed 27150043

Biological target: ab1ip_mouse Apbb1ip (UniProt Q8R5A3)
Chain of UniProt Q8R5A3 (Q8R5A3 whole entry): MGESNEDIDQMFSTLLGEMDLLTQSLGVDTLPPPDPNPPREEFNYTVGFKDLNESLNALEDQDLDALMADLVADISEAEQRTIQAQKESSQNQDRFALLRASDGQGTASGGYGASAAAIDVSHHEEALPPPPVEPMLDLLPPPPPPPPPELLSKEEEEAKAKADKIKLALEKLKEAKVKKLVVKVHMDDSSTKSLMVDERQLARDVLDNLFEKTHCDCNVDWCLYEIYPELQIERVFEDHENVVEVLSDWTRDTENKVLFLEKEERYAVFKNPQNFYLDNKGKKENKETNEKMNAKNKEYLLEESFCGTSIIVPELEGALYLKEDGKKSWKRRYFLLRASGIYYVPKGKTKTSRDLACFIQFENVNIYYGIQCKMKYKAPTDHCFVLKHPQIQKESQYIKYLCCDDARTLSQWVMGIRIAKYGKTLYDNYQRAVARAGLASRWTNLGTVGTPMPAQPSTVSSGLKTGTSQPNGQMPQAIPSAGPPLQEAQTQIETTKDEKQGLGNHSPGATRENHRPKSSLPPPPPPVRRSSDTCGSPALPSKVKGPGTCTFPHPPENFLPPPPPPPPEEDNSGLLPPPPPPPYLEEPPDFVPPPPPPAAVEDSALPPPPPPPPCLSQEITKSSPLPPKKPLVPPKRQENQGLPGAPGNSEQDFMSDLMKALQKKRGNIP

Row | Substance | effect of a mutation on the interaction
1 | Talin-1 (Mus musculus), P26039 E1794Y;E1797Y | decreasing interaction strength
2 | Talin-1 (Mus musculus), P26039 E1794Y;E1797Y;Q1801Y | decreasing interaction strength
